These are literature values, as cited in patent US20230149374A1, “METHODS AND COMPOSITIONS FOR TREATING ATHEROSCLEROSIS” (Sanford Burnham Prebys Medical Discovery Institute, priority 2021, published 2023).

The subject of this data set is patient with TNAP deficiency. The settings on record: administration for 8 months, very high blood TNAP activity; cited from earlier work.

B1: recombinant TNAP: recombinant TNAP administered for 8 months in a patient with TNAP deficiency (protein, UniProt P05186 18-501, looked up)
Alkaline phosphatase, …: LVPEKEKDPKYWRDQAQETLKYALELQKLNTNVAKNVIMFLGDGMGVSTVTAARILKGQLHHNPGEETRLEMDKFPFVALSKTYNTNAQVPDSAGTATAYLCGVKANEGTVGVSAATERSRCNTTQGNEVTSILRWAKDAGKSVGIVTTTRVNHATPSAAYAHSADRDWYSDNEMPPEALSQGCKDIAYQLMHNIRDIDVIMGGGRKYMYPKNKTDVEYESDEKARGTRLDGLDLVDTWKSFKPRYKHSHFIWNRTELLTLDPHNVDYLLGLFEPGDMQYELNRNNVTDPSLSEMVVVAIQILRKNPKGFFLLVEGGRIDHGHHEGKAKQALHEAVEMDRAIGQAGSLTSSEDTLTVVTADHSHVFTFGGYTPRGNSIFGLAPMLSDTDKKPFTAILYGNGPGYKVVGGERENVSMVDYAHNNYQAQSAVPLRHETHGGEDVAVFSKGPMAHLLHGVHEQNYVPHVMAYAACIGANLGHCAPAS
Turning to B1, the vascular calcium score result was “did not increase”.
